The assay has as its target ConCv5 KIKO 473T SOSIP soluble gp140 Env trimer (HIV-1 (clade C consensus)). Nature of the assay: SEC; analytical size exclusion chromatography of 10 µg of the final purified protein pool. In general terms: In gel filtration, larger molecules generally elute earlier.

We go through one substance from PMC10690772.

Regarding “ConCv5 KIKO 473T SOSIP soluble gp140 Env trimer (complex)”, the stoichiometry N (as a rule, a count of units in the complex or per binding partner) was determined as 3.
